Measured values taken from the supplement of paper PMC10065799, “High-throughput profiling of sequence recognition by tyrosine kinases and SH2 domains using bacterial peptide display” (eLife, 2023).
Each block holds one sequence with its values, some of them ahead of it.

Tests used:
Fes = Fes (UniProt P07332); assay: phosphorylation enrichment, bacterial display (enrichment ratio); higher = better substrate or ligand; peptides without Tyr show the background
Jak2 = Jak2 (UniProt O60674); assay: as above
Jak2, sequence (O60674 whole entry, looked up): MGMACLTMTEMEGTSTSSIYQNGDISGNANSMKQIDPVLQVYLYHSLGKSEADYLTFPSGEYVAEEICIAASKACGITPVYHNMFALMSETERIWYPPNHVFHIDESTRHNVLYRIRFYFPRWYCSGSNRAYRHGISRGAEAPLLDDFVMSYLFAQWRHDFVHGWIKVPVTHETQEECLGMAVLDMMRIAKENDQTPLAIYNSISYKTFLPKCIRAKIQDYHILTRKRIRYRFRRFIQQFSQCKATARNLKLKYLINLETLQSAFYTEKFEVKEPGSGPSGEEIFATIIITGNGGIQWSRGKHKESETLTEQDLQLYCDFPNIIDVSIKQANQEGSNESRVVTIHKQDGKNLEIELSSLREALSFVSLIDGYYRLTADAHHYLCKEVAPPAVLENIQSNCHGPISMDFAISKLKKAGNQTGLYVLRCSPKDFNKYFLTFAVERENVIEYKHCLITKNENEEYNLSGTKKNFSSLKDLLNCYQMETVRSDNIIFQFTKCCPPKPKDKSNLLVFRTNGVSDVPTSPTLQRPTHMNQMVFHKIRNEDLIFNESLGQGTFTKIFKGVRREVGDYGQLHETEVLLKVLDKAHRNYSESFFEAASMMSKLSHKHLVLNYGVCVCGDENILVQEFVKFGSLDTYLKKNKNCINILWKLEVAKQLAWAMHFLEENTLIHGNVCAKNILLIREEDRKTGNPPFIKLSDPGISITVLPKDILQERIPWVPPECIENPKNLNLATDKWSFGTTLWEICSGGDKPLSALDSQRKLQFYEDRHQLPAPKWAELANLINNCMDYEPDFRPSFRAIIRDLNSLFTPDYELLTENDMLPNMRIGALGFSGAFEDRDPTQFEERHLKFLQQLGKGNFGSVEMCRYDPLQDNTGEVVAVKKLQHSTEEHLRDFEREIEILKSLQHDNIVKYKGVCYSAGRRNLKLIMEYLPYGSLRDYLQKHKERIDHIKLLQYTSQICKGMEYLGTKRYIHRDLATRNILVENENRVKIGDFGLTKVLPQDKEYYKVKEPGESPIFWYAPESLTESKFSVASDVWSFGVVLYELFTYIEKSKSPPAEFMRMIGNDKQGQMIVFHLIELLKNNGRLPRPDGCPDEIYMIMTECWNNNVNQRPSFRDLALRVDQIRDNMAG

FGFR1 = FGFR1 (UniProt P11362); assay: as above
FGFR1, sequence (P11362 whole entry, looked up): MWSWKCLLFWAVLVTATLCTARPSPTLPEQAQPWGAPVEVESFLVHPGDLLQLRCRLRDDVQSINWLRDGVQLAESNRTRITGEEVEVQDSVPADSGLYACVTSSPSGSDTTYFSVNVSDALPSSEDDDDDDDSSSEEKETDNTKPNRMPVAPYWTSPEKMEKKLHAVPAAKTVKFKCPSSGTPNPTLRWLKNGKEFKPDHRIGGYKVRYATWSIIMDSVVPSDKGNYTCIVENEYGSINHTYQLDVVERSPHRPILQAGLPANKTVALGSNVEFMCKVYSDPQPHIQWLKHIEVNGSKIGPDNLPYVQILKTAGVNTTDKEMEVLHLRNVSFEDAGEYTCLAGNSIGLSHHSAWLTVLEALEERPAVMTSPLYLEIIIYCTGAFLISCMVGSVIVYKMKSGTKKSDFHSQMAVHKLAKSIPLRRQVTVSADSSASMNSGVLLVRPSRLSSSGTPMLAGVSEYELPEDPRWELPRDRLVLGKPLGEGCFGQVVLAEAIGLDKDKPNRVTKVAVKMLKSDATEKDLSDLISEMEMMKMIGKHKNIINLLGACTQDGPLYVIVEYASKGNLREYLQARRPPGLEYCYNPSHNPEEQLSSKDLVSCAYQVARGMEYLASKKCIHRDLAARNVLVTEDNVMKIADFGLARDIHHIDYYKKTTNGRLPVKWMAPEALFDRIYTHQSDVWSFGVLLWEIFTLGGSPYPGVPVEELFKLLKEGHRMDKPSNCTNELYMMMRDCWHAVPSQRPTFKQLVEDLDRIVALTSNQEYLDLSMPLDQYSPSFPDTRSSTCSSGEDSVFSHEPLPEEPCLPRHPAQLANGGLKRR

Fyn = Fyn (UniProt P06241); assay: as above
EPHB2 = EPHB2 (UniProt P29323); assay: as above
Fer (mouse) = assay: as above
Hck = Hck (UniProt P08631); assay: as above
c-Src = assay: as above
FGFR3 = FGFR3 (UniProt P22607); assay: as above
FGFR3, sequence (P22607 whole entry, looked up): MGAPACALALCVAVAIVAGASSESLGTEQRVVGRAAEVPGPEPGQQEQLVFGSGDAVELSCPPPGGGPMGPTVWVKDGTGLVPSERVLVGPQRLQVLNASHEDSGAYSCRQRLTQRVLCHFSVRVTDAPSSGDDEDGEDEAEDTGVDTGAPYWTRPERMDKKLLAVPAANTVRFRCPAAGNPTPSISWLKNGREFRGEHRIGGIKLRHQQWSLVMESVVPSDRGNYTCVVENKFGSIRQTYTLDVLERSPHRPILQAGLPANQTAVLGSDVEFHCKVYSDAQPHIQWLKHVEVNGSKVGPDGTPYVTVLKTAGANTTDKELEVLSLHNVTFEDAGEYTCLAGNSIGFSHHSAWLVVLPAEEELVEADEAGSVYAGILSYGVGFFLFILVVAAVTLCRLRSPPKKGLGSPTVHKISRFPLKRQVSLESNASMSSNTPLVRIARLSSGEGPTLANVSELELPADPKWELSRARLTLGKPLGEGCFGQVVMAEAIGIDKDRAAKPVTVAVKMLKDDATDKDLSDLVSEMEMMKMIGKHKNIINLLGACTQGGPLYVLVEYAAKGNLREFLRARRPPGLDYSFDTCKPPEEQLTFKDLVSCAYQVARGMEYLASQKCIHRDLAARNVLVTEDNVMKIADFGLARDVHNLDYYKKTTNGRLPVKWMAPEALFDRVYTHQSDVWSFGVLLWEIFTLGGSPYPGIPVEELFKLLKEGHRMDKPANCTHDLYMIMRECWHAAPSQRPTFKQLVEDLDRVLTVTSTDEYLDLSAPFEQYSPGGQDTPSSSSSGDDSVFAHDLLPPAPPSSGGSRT

EPHB1 = EPHB1 (UniProt P54762); assay: as above
EPHB1, sequence (P54762 whole entry, looked up): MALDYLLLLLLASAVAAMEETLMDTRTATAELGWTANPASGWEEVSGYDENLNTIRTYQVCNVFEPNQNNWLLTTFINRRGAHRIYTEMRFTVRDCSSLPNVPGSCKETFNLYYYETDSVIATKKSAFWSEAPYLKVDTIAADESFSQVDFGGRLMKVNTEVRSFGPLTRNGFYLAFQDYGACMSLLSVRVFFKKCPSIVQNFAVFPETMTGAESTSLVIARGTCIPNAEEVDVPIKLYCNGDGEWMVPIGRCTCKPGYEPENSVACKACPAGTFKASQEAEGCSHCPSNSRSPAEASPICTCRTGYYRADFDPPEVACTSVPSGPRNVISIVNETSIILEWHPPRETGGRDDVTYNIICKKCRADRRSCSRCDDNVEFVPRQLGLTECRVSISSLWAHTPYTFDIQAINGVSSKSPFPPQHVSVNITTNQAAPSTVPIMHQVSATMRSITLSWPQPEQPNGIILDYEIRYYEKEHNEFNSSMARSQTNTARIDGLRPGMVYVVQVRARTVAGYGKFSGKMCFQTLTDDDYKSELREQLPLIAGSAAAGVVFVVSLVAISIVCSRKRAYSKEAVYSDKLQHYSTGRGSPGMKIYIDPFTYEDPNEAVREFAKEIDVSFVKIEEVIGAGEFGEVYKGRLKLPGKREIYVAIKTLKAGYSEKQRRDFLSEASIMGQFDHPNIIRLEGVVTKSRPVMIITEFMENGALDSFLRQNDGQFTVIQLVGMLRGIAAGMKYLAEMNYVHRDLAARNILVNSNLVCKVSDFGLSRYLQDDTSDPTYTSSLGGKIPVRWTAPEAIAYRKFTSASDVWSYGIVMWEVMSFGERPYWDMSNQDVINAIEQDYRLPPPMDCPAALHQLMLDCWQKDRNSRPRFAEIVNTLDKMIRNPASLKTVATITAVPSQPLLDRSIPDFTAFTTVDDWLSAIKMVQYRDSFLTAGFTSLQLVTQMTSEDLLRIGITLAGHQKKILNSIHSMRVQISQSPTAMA

c-Abl (mouse) = assay: as above
AncSZ = assay: as above
MERTK = MERTK (UniProt Q12866); assay: as above
MERTK, sequence (Q12866 whole entry, looked up): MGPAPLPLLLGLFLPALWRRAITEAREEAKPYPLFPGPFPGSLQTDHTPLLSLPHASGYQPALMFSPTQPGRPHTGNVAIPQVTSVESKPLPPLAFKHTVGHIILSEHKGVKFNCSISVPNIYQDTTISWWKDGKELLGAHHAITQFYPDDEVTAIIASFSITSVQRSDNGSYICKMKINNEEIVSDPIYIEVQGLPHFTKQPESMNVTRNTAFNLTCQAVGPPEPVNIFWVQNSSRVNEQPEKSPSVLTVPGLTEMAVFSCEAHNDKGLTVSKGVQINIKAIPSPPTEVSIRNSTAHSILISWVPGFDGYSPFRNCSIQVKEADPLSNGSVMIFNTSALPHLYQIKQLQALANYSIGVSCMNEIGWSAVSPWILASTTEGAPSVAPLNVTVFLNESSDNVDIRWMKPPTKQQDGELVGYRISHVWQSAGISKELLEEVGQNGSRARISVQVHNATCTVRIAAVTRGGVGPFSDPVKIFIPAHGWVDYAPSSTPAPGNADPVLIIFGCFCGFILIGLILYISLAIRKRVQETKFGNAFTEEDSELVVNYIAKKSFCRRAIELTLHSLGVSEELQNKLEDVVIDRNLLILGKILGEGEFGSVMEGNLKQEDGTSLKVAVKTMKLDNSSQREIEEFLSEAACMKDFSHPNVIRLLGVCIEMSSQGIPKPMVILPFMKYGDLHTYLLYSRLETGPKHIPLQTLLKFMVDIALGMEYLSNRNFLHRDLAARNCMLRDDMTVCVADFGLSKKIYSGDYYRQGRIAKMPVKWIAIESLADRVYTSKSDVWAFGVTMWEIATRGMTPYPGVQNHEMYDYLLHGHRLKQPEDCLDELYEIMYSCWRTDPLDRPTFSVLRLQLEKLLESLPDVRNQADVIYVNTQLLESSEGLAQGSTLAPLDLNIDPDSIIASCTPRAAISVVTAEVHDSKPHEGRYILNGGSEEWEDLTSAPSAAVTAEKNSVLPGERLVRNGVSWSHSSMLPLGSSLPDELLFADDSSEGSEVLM

Grb2 SH2 = Grb2 SH2 (UniProt P62993); assay: SH2 binding enrichment of the phosphorylated peptide, bacterial display (enrichment ratio); higher = better substrate or ligand; peptides without Tyr show the background
SHP2-C SH2 = assay: as above
c-Src SH2 = assay: as above
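Throughout, for SH2 binding enrichment of the phosphorylated peptide, bacterial display: peptide library displayed on the E. coli surface as eCPX fusions, selected cells deep-sequenced, score is each peptide's frequency after selection divided by its frequency in the input.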
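Throughout, for phosphorylation enrichment, bacterial display: 11-residue human phosphosite peptides and single-mutation variants displayed on the E. coli surface, counted by deep sequencing, each peptide's frequency after selection divided by its frequency in the unselected input library; frequency after pTyr selection over input frequency; kinase dosed for 20-30% of maximal phosphorylation in three min.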

SH2 binding enrichment (Grb2 SH2): 1.03
SH2 binding enrichment (SHP2-C SH2): 0.668
SH2 binding enrichment (c-Src SH2): 0.613
Sequence: RFGKVYKAHLF [ROR2_Y488_G490A]
phosphorylation enrichment (Fes): 0.604
phosphorylation enrichment (Jak2): 0.39
phosphorylation enrichment (FGFR1): 0.72
phosphorylation enrichment (Fyn): 0.57
phosphorylation enrichment (EPHB2): 0.583
phosphorylation enrichment (Fer (mouse)): 0.846
phosphorylation enrichment (Hck): 0.645
phosphorylation enrichment (c-Src): 0.886
phosphorylation enrichment (FGFR3): 0.733
phosphorylation enrichment (EPHB1): 0.476
phosphorylation enrichment (c-Abl (mouse)): 0.594
phosphorylation enrichment (AncSZ): 0.622
phosphorylation enrichment (MERTK): 0.509

SH2 binding enrichment (Grb2 SH2): 0.763
SH2 binding enrichment (SHP2-C SH2): 0.678
SH2 binding enrichment (c-Src SH2): 0.632
Sequence: SLGKGYSDGGC [MC4R_Y35]
phosphorylation enrichment (Fes): 0.773
phosphorylation enrichment (Jak2): 0.719
phosphorylation enrichment (FGFR1): 0.576
phosphorylation enrichment (Fyn): 0.47
phosphorylation enrichment (EPHB2): 0.473
phosphorylation enrichment (Fer (mouse)): 0.399
phosphorylation enrichment (Hck): 0.427
phosphorylation enrichment (c-Src): 0.387
phosphorylation enrichment (FGFR3): 0.585
phosphorylation enrichment (EPHB1): 0.456
phosphorylation enrichment (c-Abl (mouse)): 0.603
phosphorylation enrichment (AncSZ): 0.636
phosphorylation enrichment (MERTK): 0.392

SH2 binding enrichment (Grb2 SH2): 0.979
SH2 binding enrichment (SHP2-C SH2): 0.953
SH2 binding enrichment (c-Src SH2): 0.725
Sequence: NQILPYIEELV [PPP2R1B_Y341_K343E]
phosphorylation enrichment (Fes): 1.28
phosphorylation enrichment (Jak2): 1.45
phosphorylation enrichment (FGFR1): 0.533
phosphorylation enrichment (Fyn): 0.53
phosphorylation enrichment (EPHB2): 0.644
phosphorylation enrichment (Fer (mouse)): 0.931
phosphorylation enrichment (Hck): 0.568
phosphorylation enrichment (c-Src): 0.507
phosphorylation enrichment (FGFR3): 0.781
phosphorylation enrichment (EPHB1): 0.673
phosphorylation enrichment (c-Abl (mouse)): 0.875
phosphorylation enrichment (AncSZ): 1.37
phosphorylation enrichment (MERTK): 0.504

SH2 binding enrichment (Grb2 SH2): 0.743
SH2 binding enrichment (SHP2-C SH2): 0.762
SH2 binding enrichment (c-Src SH2): 8.92
Sequence: MEIHAYHKLLE [LMNA_Y376_R377H]
phosphorylation enrichment (Fes): 1.25
phosphorylation enrichment (Jak2): 1.03
phosphorylation enrichment (FGFR1): 0.474
phosphorylation enrichment (Fyn): 0.445
phosphorylation enrichment (EPHB2): 0.588
phosphorylation enrichment (Fer (mouse)): 0.422
phosphorylation enrichment (Hck): 0.552
phosphorylation enrichment (c-Src): 0.441
phosphorylation enrichment (FGFR3): 0.746
phosphorylation enrichment (EPHB1): 0.475
phosphorylation enrichment (c-Abl (mouse)): 0.691
phosphorylation enrichment (AncSZ): 0.974
phosphorylation enrichment (MERTK): 0.403

The remaining lines, values behind:

Sequence: LSSETYVKSFT [F5_Y2149_M2148T_YF]
phosphorylation enrichment (Fes): 1.14
phosphorylation enrichment (Jak2): 1.06
phosphorylation enrichment (FGFR1): 0.743
phosphorylation enrichment (Fyn): 0.665
phosphorylation enrichment (EPHB2): 1.7
phosphorylation enrichment (Fer (mouse)): 0.511
phosphorylation enrichment (Hck): 0.858
phosphorylation enrichment (c-Src): 0.512
phosphorylation enrichment (FGFR3): 0.735
phosphorylation enrichment (EPHB1): 0.789
phosphorylation enrichment (c-Abl (mouse)): 0.595
phosphorylation enrichment (AncSZ): 0.969
phosphorylation enrichment (MERTK): 0.379
SH2 binding enrichment (Grb2 SH2): 0.798
SH2 binding enrichment (SHP2-C SH2): 0.74
SH2 binding enrichment (c-Src SH2): 0.587

Sequence: GSRGKYSSGFC [ATM_Y332_R337C]
phosphorylation enrichment (Fes): 0.559
phosphorylation enrichment (Jak2): 0.545
phosphorylation enrichment (FGFR1): 0.446
phosphorylation enrichment (Fyn): 0.464
phosphorylation enrichment (EPHB2): 0.406
phosphorylation enrichment (Fer (mouse)): 0.401
phosphorylation enrichment (Hck): 0.431
phosphorylation enrichment (c-Src): 0.472
phosphorylation enrichment (FGFR3): 0.539
phosphorylation enrichment (EPHB1): 0.441
phosphorylation enrichment (c-Abl (mouse)): 0.611
phosphorylation enrichment (AncSZ): 0.495
phosphorylation enrichment (MERTK): 0.51
SH2 binding enrichment (Grb2 SH2): 1.25
SH2 binding enrichment (SHP2-C SH2): 1.16
SH2 binding enrichment (c-Src SH2): 0.938

Sequence: VTGWGYRKLRE [F11_Y521_D526E]
phosphorylation enrichment (Fes): 0.763
phosphorylation enrichment (Jak2): 0.579
phosphorylation enrichment (FGFR1): 0.476
phosphorylation enrichment (Fyn): 0.495
phosphorylation enrichment (EPHB2): 0.455
phosphorylation enrichment (Fer (mouse)): 0.508
phosphorylation enrichment (Hck): 0.407
phosphorylation enrichment (c-Src): 0.578
phosphorylation enrichment (FGFR3): 0.631
phosphorylation enrichment (EPHB1): 0.415
phosphorylation enrichment (c-Abl (mouse)): 0.588
phosphorylation enrichment (AncSZ): 0.907
phosphorylation enrichment (MERTK): 0.546
SH2 binding enrichment (Grb2 SH2): 0.63
SH2 binding enrichment (SHP2-C SH2): 0.375
SH2 binding enrichment (c-Src SH2): 0.584

Sequence: TCRPPYFHRNC [HGD_Y333_F329C_YF]
phosphorylation enrichment (Fes): 1.06
phosphorylation enrichment (Jak2): 0.914
phosphorylation enrichment (FGFR1): 0.255
phosphorylation enrichment (Fyn): 0.4
phosphorylation enrichment (EPHB2): 0.686
phosphorylation enrichment (Fer (mouse)): 0.334
phosphorylation enrichment (Hck): 0.548
phosphorylation enrichment (c-Src): 0.314
phosphorylation enrichment (FGFR3): 0.568
phosphorylation enrichment (EPHB1): 0.215
phosphorylation enrichment (c-Abl (mouse)): 0.878
phosphorylation enrichment (AncSZ): 1.05
phosphorylation enrichment (MERTK): 0.758
SH2 binding enrichment (Grb2 SH2): 1.45
SH2 binding enrichment (SHP2-C SH2): 0.9
SH2 binding enrichment (c-Src SH2): 1

Sequence: EAGKVYLKAAM [CBFB_Y96_P100A]
phosphorylation enrichment (Fes): 1.26
phosphorylation enrichment (Jak2): 1.26
phosphorylation enrichment (FGFR1): 0.674
phosphorylation enrichment (Fyn): 0.408
phosphorylation enrichment (EPHB2): 0.484
phosphorylation enrichment (Fer (mouse)): 0.568
phosphorylation enrichment (Hck): 0.494
phosphorylation enrichment (c-Src): 0.449
phosphorylation enrichment (FGFR3): 0.742
phosphorylation enrichment (EPHB1): 0.565
phosphorylation enrichment (c-Abl (mouse)): 0.775
phosphorylation enrichment (AncSZ): 1.03
phosphorylation enrichment (MERTK): 0.333
SH2 binding enrichment (Grb2 SH2): 0.893
SH2 binding enrichment (SHP2-C SH2): 0.781
SH2 binding enrichment (c-Src SH2): 0.462
